Experimental data as given in patent US20140024594A1.

Molecular target: GFP-MG53 (mouse) (UniProt Q1XH17)
Experiment: cell-based or functional assay

Chain of UniProt Q1XH17 (Q1XH17 whole entry): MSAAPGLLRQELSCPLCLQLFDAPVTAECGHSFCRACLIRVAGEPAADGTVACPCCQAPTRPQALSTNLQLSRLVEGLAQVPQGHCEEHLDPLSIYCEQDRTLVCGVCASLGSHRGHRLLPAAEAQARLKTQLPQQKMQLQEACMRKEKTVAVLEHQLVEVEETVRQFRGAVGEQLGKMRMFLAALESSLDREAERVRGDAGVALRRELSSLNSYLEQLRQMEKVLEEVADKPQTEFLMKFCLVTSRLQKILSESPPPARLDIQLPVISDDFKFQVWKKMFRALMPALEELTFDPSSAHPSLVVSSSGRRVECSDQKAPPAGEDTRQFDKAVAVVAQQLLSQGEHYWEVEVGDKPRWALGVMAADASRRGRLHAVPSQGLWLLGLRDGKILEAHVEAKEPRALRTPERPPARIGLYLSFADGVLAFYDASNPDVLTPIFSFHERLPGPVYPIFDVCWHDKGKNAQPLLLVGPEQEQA

reduction in the appearance of filapodia-like structures: 82%
Substance: caveolin-3 overexpressed from pcDNA-Cav-3
